The source of these data is publication PMC8233815.

Data set [1] has as its target T1, Elk1 ETS domain (Homo sapiens, UniProt P19419 1-93).
T1 sequence: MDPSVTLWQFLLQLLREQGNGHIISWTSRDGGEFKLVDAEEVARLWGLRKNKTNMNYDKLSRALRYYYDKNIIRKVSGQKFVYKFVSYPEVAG
The data set can be described thus: SPR. (In general: Surface plasmon resonance follows binding to a sensor surface in real time, without labels.)

The target in data set [2] is T1, Elk1 ETS domain. Put plainly: SPR. This is another data set of the same source.

Where two headings read alike, the source gives them in different places.

B1: E74 (dsDNA)
DNA 1: CTGAATAACCGGAAGTAACTCATC
DNA 2: GATGAGTTACTTCCGGTTATTCAG
As for B1, the binding result with Elk1 ETS domain [1] is listed as “binds”.

B2: SD1 (scrambled nonspecific) (dsDNA)
DNA 1: CGCAAAAGCTGAGATGGCGTGCC
DNA 2: GGCACGCCATCTCAGCTTTTGCG
With B2, the binding result with Elk1 ETS domain [2] is listed as “no binding”.
